Where two headings read alike, the source gives them in different places.
Tests used:
[1] = target: HIV-1 YU-2 envelope gp120 with a C-terminal hexa-histidine tag (HIV-1 (YU-2 strain)) (UniProt P35961); assay: SPR
[2] = target: HIV-1 YU-2 envelope gp120 with a C-terminal hexa-histidine tag (HIV-1 (YU-2 strain)) (UniProt P35961); assay: ITC
[3] = target: HIV-1 YU-2 envelope gp120 with a C-terminal hexa-histidine tag (HIV-1 (YU-2 strain)) (UniProt P35961); assay: SPR; remark: listed apart in the source
[4] = target: HIV-1 YU-2 envelope gp120 with a C-terminal hexa-histidine tag (HIV-1 (YU-2 strain)) (UniProt P35961)

Substance	IC50 [1] [nM]	dH [2] [kcalmol^−1]	IC50 [3] [nM]	Kd [2] [nM]	EC50 of inhibition of single-round infection by HIV-1BaL (Env of BaL, not YU-2) [4] [nM]
peptide triazole KR-41 (UM-24 with Trp 6 replaced by L-3-benzothienylalanine, Bta)	50.8	-14.9			
peptide triazole KR-42 (DCit-DAsn-DAsn-DIle-LFtP-LBta-DSer-NH2)	208	-14.6	119	282	
peptide triazole UM-24 (Cit-N-N-I-X-W-S-CONH2)	71.5	-14.1	45	21.1	6200
